Test results reported in the supplement of paper PMC12764529.
± gives the half width of the 95% confidence interval.

Experiments:
[1] = folding stability dG unfold (combined trypsin and chymotrypsin); higher = more stable
Summary of the method: (§1)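 Designed mini-proteins with no cysteine and under 80 residues were kept only if AlphaFold2 dimer inter-PAE was above 15. In a PA-tagged cDNA display construct, they were digested with trypsin and chymotrypsin and then sequenced. K50 was inferred by Bayesian fitting of counts, and unfolding free energy was derived per protease or combined against a sequence-predicted unfolded-state K50 and a shared folded-state K50.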

[2] = folding stability dG unfold from chymotrypsin proteolysis; higher = more stable
Summary of the method: as §1

[3] = folding stability dG unfold from trypsin proteolysis; higher = more stable
Summary of the method: as §1

Sequence	folding stability dG unfold [1] [kcal/mol]	folding stability dG unfold [2] [kcal/mol]	folding stability dG unfold [3] [kcal/mol]
SAGGSSMVDIKPGLVTEIRVETLPNGERVYVVEIPLENGERAVVKISEKFKSEEEKLKAIYEAVSKSAGGSA [r2_347_JUSTAS]	2.24 ± 0.12	2.47 ± 0.039	1.71 ± 0.05
SAGGSAGGSLLEDIKKALEIIKPPPIPVKVKVKIEYDPEKGELKVEVEFFGIKLKVEGEFKIESAGGSAGGS [r20_230_TrMRF]	3.04 ± 0.26	3.4 ± 0.16	2.07 ± 0.22
SAGMMKVKIELTIVVETKEEAEKLAEELKKALEELGIKEVKVTVEYDKETKKVTVTVEIEIELEPELLSAGG [r19_92_TrROS_Hall]	2.17 ± 0.23	2.17 ± 0.1	2.18 ± 0.21
SVKIKINWQRDPEDGRLYLMIEYRFEDDPQQAIEEIKDILERFGFKVPEIESITVDPGNGEITIPIRIPWSA [r9_876_TrROS]	2.66 ± 0.22	2.62 ± 0.11	2.64 ± 0.097
SAGMTITTTTPAEAAALAEELAKKNPVLNVTITVVDPETGTVTTIPFAVPAPLPRPYFDPETGEVTLEGSAG [r5_870_TrMRF]	0.779 ± 0.11	0.193 ± 0.18	1.1 ± 0.033
SAGGSAGGSAGKKKLRLTLPGAEVEYDAATNELTIRLKAPPPPPKTTTKVETKTVLLPGKSAGGSAGGSAGG [r11_149_TrROS_Hall]	0.989 ± 0.18	1.2 ± 0.095	0.792 ± 0.076
SAGGGSMFSTIYDPNSNNSIEAPLLSIREEDGRPTIEYQLPDGTRVTRPLSELGAFTLTGGAGSLTLPSAGG [r13_211_JUSTAS]	0.774 ± 0.075	0.552 ± 0.14	0.83 ± 0.052
SAGGSAGGSAMDAEEIADMIKEILRKQFPNVKITEITVERRPPGNYYVEARVPDGNQRTIPISAGGSAGGSA [r18_423_TrROS]	0.115 ± 0.061	0.286 ± 0.059	-0.483 ± 0.15
SAGGLKDILKELGFPIKSVTVQPMPMPNGMPMRTVSITFENPNGPKFEIEVMVMPNGEVMIDIEWVKPSAGG [r13_818_TrROS]	2.48 ± 0.22	2.69 ± 0.11	2.23 ± 0.092
MSEKTFVVEVKVESPEEAEELIEKLKEKLSGEKYEVKIEKVEVSPDGTVKVHITFKPGVPEEFIKKALEEES [r1_485_TrMRF]	2.7 ± 0.11	2.97 ± 0.086	2.28 ± 0.13
SAGGSPSMSPEELAKREKERILEELRKKGGSKTIPMKVEITVPDEKGNTTKYNIEINITVEVPEDKLSAGGS [r16_550_JUSTAS]	0.974 ± 0.15	1.31 ± 0.1	0.622 ± 0.082
SAGGSAGGSAGLDNIKPEELKKLFPGYKVYLLKVEEVGGKLKVDVKILKYNPSTNTWTPESAGGSAGGSAGG [r11_20_TrMRF]	1.48 ± 0.11	1.59 ± 0.14	1.13 ± 0.044
SAGGSEFIPVVAEFPEDVTPEDVARAVRELERAGFVVERVEVERFPDPDGRERYRVRVVLRRPEELSAGGSA [r2_442_TrMRF]	3.732 ± 0.035	3.841 ± 0.0097	3.53 ± 0.081
SAGGMMKLELEIEKEDGKKYKIEVEYNKEEPVLKIKIYDKNGKKIKEIEIKAKSLEEALEAAKKLLKSAGGS [r16_158_TrROS_Hall]	3.68 ± 0.22	3.99 ± 0.2	3.3 ± 0.14
SAMKKTETRVLEIRIGDYLAKIFLTEYEDGRVETLIEVYGPDPAVVEEVKDFLEKLDPDLEITEIVVLDSAG [r14_611_TrMRF]	2.68 ± 0.12	2.23 ± 0.032	3.13 ± 0.072
SAGGSAGGKKIEMKIIKNEDGTKLIVFKSKEEAEEALKKAGYEVKIVSVNEEKGYVVIEIRKKKSAGGSAGG [r6_510_TrROS_Hall]	1.9 ± 0.072	2.21 ± 0.04	1.17 ± 0.043
SAGWFISIKYKDPPTGRKRKISIPIPPGDPWLKELGFPSLDGLAKWLAPEMREEGHDVKDVKVEIMPPKSAG [r5_722_TrROS]	3.75 ± 0.16	4.16 ± 0.059	3.38 ± 0.19
SAMTVELTLPSEELVEKIKELLPSYVKIEKVEVDEETKTVTVTVSFDPNLSPEEQQAVVEKIKKLIEEKSAG [r14_306_JUSTAS]	3.4 ± 0.28	3.56 ± 0.26	2.7 ± 0.2
SAGGSAGGSAGGSGMTPIPLEVLERKVTEYDPKNGKITVEALAILPDGTPVKLKFTVELSAGGSAGGSAGGS [r4_184_JUSTAS]	1.37 ± 0.22	1.37 ± 0.18	1.11 ± 0.042
SAGGWQKVEFMIEIPGGGSLDQAKDEVEEFADYLRKKAGFKDVDVDVQVDPDGWVYVMVEIEVPPNASAGGS [r8_3_TrROS]	1.87 ± 0.062	2.24 ± 0.042	1.06 ± 0.04
SAGGSAGGSNELLKKLGLKPDQTILVLARPGEIEKLRKEKPIKRIEVTPLPDDLYLYRIEVEGSAGGSAGGS [r12_750_TrMRF]	0.192 ± 0.19	0.095 ± 0.38	-0.0878 ± 0.16
